# From publication PMC4787773
# Biological target: hnRNPK (human, UniProt P61978 1-463)
# Assay: EMSA
row,Binder,binding result
1,"GGGGCCGGGGCCGGGGCCGGGGCCGGGGCCGGGGCCGGGGCCGGGGCC (structured_DNA, 5-methylcytosine at each CpG) [d(GGGGCC)8 5mCpG]",no binding
2,"GGGGCCGGGGCCGGGGCCGGGGCCGGGGCCGGGGCCGGGGCCGGGGCC (structured_DNA, 5-hydroxymethylcytosine at each CpG) [d(GGGGCC)8 5hmCpG]",no binding
